Assay results as given in PMC4370617, “Development of a Molecularly Evolved, Highly Sensitive CaMKII FRET Sensor with Improved Expression Pattern” (PLoS ONE, 2015).

Target: the molecule itself
Assay: native gel or EMSA; His-tagged association domains purified from HeLa cells, incubated in 25 mM HEPES pH 7.3, 50 mM KCl, 1 mM DTT for 1 hour at 37°C; native-PAGE, silver staining

B1: His-tagged association domain of CaMKIIα, wild type (domain or fragment, rat, UniProt P11275 345-478, looked up)
chain: VRKQEIIKVTEQLIEAISNGDFESYTKMCDPGMTAFEPEALGNLVEGLDFHRFYFENLWSRNSKPVHTTILNPHIHLMGDESACIAYIRITQYLDAGGIPRTAQSEETRVWHRRDGKWQIVHFHRSGAPSVLPH
notes: association domain of CaMKIIα, rat, 345-end; Printed molecular weight of the His-tagged domain: 19,800; The limits 345-end are stated for the library fragment; they are not restated for the HeLa expression construct; also called AD WT; source: HeLa, transfected, purified (Ni-Sepharose)
binding result: binds
